Measurements reported in US20070128678A1.

T1: PknB1-279 (His-tagged catalytic kinase domain of Mycobacterium tuberculosis Ser/Thr protein kinase PknB, aa 1-279), P9WI81
T1 chain: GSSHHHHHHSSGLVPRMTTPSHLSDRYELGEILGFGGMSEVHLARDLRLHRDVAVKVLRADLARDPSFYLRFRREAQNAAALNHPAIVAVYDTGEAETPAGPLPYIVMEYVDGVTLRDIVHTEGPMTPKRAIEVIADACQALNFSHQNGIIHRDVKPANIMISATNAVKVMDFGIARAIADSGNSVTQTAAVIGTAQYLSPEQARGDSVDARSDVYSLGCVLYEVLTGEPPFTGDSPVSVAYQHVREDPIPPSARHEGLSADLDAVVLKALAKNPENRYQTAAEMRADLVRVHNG

B1: PstP1-240 (His-tagged catalytic domain of Mycobacterium tuberculosis Ser/Thr protein phosphatase PstP, aa 1-240) (protein)
chain: MARVTLVLRYAARSDRGLVRANNEDSVYAGARLLALADGMGGHAAGEVASQLVIAALAHLDDDEPGGDLLAKLDAAVRAGNSAIAAQVEMEPDLEGMGTTLTAILFAGNRLGLVHIGDSRGYLLRDGELTQITKDDTFVQTLVDEGRITPEEAHSHPQRSLIMRALTGHEVEPTLTMREARAGDRYLLCSDGLSDPVSDETILEALQIPEVAESAHRLIELALRGGGPDNVTVVVADVVD

Experiments:
[1] = target: PknB1-279 (His-tagged catalytic kinase domain of Mycobacterium tuberculosis Ser/Thr protein kinase PknB, aa 1-279) (Mycobacterium tuberculosis) (UniProt P9WI81); assay: cell-based or functional assay
[2] = target: T1, PknB1-279 (His-tagged catalytic kinase …)

| Molecule | MALDI-TOF mass of PknB1-279 after phosphatase treatment (phosphate groups removed) (phosphate groups) [1] | dephosphorylation of autophosphorylated [33P]-PknB1-279 by PstP (SDS-PAGE, autoradiography, band shift) [2] | kinase activity of PknB on MBP with thio-γATP after preincubation with PstP [2] |
| --- | --- | --- | --- |
| PstP1-240 (His-tagged catalytic domain of Mycobacterium tuberculosis Ser/Thr protein phosphatase PstP, aa 1-240) (from UniProt P9WHW4 1-240) (enzyme) | 3 |  |  |
| B1 |  | PstP is capable of dephosphorylating PknB | prior dephosphorylation of PknB by PstP inhibits kinase activity on MBP |
